B1: G protein-coupled receptor kinase type 4 (enzyme, human (endogenous in RPTCs), UniProt P32298 1-578, looked up)
chain: MELENIVANSLLLKARQGGYGKKSGRSKKWKEILTLPPVSQCSELRHSIEKDYSSLCDKQPIGRRLFRQFCDTKPTLKRHIEFLDAVAEYEVADDEDRSDCGLSILDRFFNDKLAAPLPEIPPDVVTECRLGLKEENPSKKAFEECTRVAHNYLRGEPFEEYQESSYFSQFLQWKWLERQPVTKNTFRHYRVLGKGGFGEVCACQVRATGKMYACKKLQKKRIKKRKGEAMALNEKRILEKVQSRFVVSLAYAYETKDALCLVLTIMNGGDLKFHIYNLGNPGFDEQRAVFYAAELCCGLEDLQRERIVYRDLKPENILLDDRGHIRISDLGLATEIPEGQRVRGRVGTVGYMAPEVVNNEKYTFSPDWWGLGCLIYEMIQGHSPFKKYKEKVKWEEVDQRIKNDTEEYSEKFSEDAKSICRMLLTKNPSKRLGCRGEGAAGVKQHPVFKDINFRRLEANMLEPPFCPDPHAVYCKDVLDIEQFSVVKGIYLDTADEDFYARFATGCVSIPWQNEMIESGCFKDINKSESEEALPLDLDKNIHTPVSRPNRGFFYRLFRRGGCLTMVPSEKEVEPKQC
B2: caveolin-1 (natural protein, human (endogenous in RPTCs), UniProt Q03135 1-178, looked up)
chain: MSGGKYVDSEGHLYTVPIREQGNIYKPNNKAMADELSEKQVYDAHTKEIDLVNRDPKHLNDDVVKIDFEDVIAEPEGTHSFDGIWKASFTTFTVTKYWFYRLLSALFGIPMALIWGIYFAILSFLHIWAVVPCIKSFLIEIQCISRVYSIYVHTVCDPLFEAVGKIFSNVRINLQKEI

Key:
[1] = target: B2; test: co-IP
[2] = target: B1; test: co-IP

Binder: B1
- decrease of co-immunoprecipitation in uRPTCs relative to nRPTCs [1]: 58%

Binder: B2
- decrease of co-immunoprecipitation in uRPTCs relative to nRPTCs [2]: 55.6%
